T1: AcXbh30A-CD (Acetivibrio clariflavus, UniProt G8LU16)
T1 construct: gene Clocl_1795; GH30 catalytic domain only, secretion leader and C-terminal type I dockerin removed, C-terminal His-tag, pET28 expression, ca. 50 kDa, apparent monomer
T1 sequence (G8LU16 29-455 limits assumed): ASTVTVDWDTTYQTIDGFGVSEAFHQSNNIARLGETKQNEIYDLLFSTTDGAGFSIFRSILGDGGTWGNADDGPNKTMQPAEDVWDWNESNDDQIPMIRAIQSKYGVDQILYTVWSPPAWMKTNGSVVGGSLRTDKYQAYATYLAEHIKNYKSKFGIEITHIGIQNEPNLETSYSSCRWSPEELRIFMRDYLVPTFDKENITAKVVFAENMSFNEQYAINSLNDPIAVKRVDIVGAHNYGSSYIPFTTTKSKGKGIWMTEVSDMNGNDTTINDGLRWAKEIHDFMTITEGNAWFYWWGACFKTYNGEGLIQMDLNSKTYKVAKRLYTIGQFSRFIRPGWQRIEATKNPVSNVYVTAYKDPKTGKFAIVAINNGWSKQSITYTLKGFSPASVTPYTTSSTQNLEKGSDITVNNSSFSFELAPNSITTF


Assays:
AcXbh30A-CD = target: T1, AcXbh30A-CD; test: pNP-X2 hydrolysis, non-linear competitive inhibition fit; assay type: biochemical; settings: competitive product inhibition; substrate pNP-X2; 30 mM sodium acetate pH 4.0, 0.02 mg/ml BSA, 65 C; read-out: AcXbh30A pNP-X2 kinetic values^a ^, ^b / 116.4 ± 3.23 μM
Text: pNP-X2 hydrolysis, non-linear competitive inhibition fit on AcXbh30A-CD

purified protein = substrate: O=[N+]([O-])c1ccc(O[C@@H]2OC[C@@H](O[C@@H]3OC[C@@H](O)[C@H](O)[C@H]3O)[C@H](O)[C@H]2O)cc1; test: purified protein; assay type: biochemical, Acetivibrio clariflavus; settings: 30 mM sodium acetate pH 4.0, 0.02 mg/ml BSA, 65 C, 10 min

Ki (AcXbh30A-CD)	Molecule	Km (purified protein)	Vmax (purified protein)	kcat (purified protein)	kcat/Km (purified protein)
2.4 mM	OC1OC[C@@H](O[C@@H]2OC[C@@H](O)[C@H](O)[C@H]2O)[C@H](O)[C@H]1O (some centres unmarked) [X2]	–	–	–	–
–	AcXbh30A-CD (Acetivibrio clariflavus DSM 19732) (protein, GH30 catalytic domain only, secretion leader and C-terminal type I dockerin removed, C-terminal His-tag, pET28 expression, ca. 50 kDa, apparent monomer) ASTVTVDWDTTYQTIDGFGVSEAFHQSNNIARLGETKQNEIYDLLFSTTDGAGFSIFRSILGDGGTWGNADDGPNKTMQPAEDVWDWNESNDDQIPMIRAIQSKYGVDQILYTVWSPPAWMKTNGSVVGGSLRTDKYQAYATYLAEHIKNYKSKFGIEITHIGIQNEPNLETSYSSCRWSPEELRIFMRDYLVPTFDKENITAKVVFAENMSFNEQYAINSLNDPIAVKRVDIVGAHNYGSSYIPFTTTKSKGKGIWMTEVSDMNGNDTTINDGLRWAKEIHDFMTITEGNAWFYWWGACFKTYNGEGLIQMDLNSKTYKVAKRLYTIGQFSRFIRPGWQRIEATKNPVSNVYVTAYKDPKTGKFAIVAINNGWSKQSITYTLKGFSPASVTPYTTSSTQNLEKGSDITVNNSSFSFELAPNSITTF	116.4 ± 3.23 µM	183.1 ± 1.13 U mg^−1	152.7 s⁻¹	1,311.6 s^−1 mM^−1

— paper PMC8453022, “A New Subfamily of Glycoside Hydrolase Family 30 with Strict Xylobiohydrolase Function” (Frontiers in Molecular Biosciences, 2021)
